Columns and labels:
[1] = system: HeLa Kyoto; test: solubility in G1/S (NP-40 vs SDS abundance) (log2 ratio); higher = more soluble; conditions: cell cycle stage: G1/S
[2] = system: HeLa Kyoto; test: melting temperature (median over replicates), in situ; higher = more thermally stable
[3] = system: HeLa Kyoto; test: solubility change mitosis vs G1/S (difference of NP-40 vs SDS log2 ratios) (log2 ratio difference); higher = more soluble in mitosis
[4] = system: HeLa Kyoto; test: thermal stability score vs G1/S (z-score of summed log2 fold changes over temperatures); higher = more thermally stable than in G1/S
[5] = cell cycle stage: early G1 (4.5 h after nocodazole release)
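Throughout, for melting temperature (median over replicates), in situ: HeLa Kyoto cells synchronized by double thymidine or nocodazole block, proteins quantified by TMT10plex mass spectrometry, three independent biological replicates.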
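Throughout, for solubility change mitosis vs G1/S (difference of NP-40 vs SDS log2 ratios): synchronized HeLa Kyoto cells (double thymidine block for G1/S, nocodazole release for mitosis), protein amounts in NP-40 versus SDS lysates quantified by mass spectrometry, three biological replicates.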
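Throughout, for solubility in G1/S (NP-40 vs SDS abundance): HeLa Kyoto cells arrested at G1/S by double thymidine block, proteins quantified by TMT10plex mass spectrometry in mild NP-40 versus SDS extracts, three biological replicates.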
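Throughout, for thermal stability score vs G1/S (z-score of summed log2 fold changes over temperatures): synchronized HeLa Kyoto cells, proteins quantified by TMT10plex mass spectrometry, three biological replicates, mitosis taken 0.5 h after nocodazole release, G1/S directly after double thymidine block.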

Sequence | solubility in G1/S (log2) [1] | melting temperature ([2]; cell cycle stage: G1/S) | melting temperature ([2]; cell cycle stage: mitosis) | solubility change mitosis (log2) [3] | thermal stability score [4, 5] | thermal stability score ([4]; cell cycle stage: mitosis)
MESAAALHFSRPASLLLLLLSLCALVSAQFIVVGPTDPILATVGENTTLRCHLSPEKNAEDMEVRWFRSQFSPAVFVYKGGRERTEEQMEEYRGRTTFVSKDISRGSVALVIHNITAQENGTYRCYFQEGRSYDEAILHLVVAGLGSKPLISMRGHEDGGIRLECISRGWYPKPLTVWRDPYGGVAPALKEVSMPDADGLFMVTTAVIIRDKSVRNMSCSINNTLLGQKKESVIFIPESFMPSVSPCAVALPIIVVILMIPIAVCIYWINKLQKEKKILSGEKEFERETREIALKELEKERVQKEEELQVKEKLQEELRWRRTFLHAVDVVLDPDTAHPDLFLSEDRRSVRRCPFRHLGESVPDNPERFDSQPCVLGRESFASGKHYWEVEVENVIEWTVGVCRDSVERKGEVLLIPQNGFWTLEMHKGQYRAVSSPDRILPLKESLCRVGVFLDYEAGDVSFYNMRDRSHIYTCPRSAFSVPVRPFFRLGCEDSPIFICPALTGANGVTVPEEGLTLHRVGTHQSL [BTN2A1] | -0.062 | 52.7 °C | 53.4 °C | -0.101 | -0.399 | -0.343
MAQVAMSTLPVEDEESSESRMVVTFLMSALESMCKELAKSKAEVACIAVYETDVFVVGTERGRAFVNTRKDFQKDFVKYCVEEEEKAAEMHKMKSTTQANRMSVDAVEIETLRKTVEDYFCFCYGKALGKSTVVPVPYEKMLRDQSAVVVQGLPEGVAFKHPENYDLATLKWILENKAGISFIIKRPFLEPKKHVGGRVMVTDADRSILSPGGSCGPIKVKTEPTEDSGISLEMAAVTVKEESEDPDYYQYNIQAGPSETDDVDEKQPLSKPLQGSHHSSEGNEGTEMEVPAEDSTQHVPSETSEDPEVEVTIEDDDYSPPSKRPKANELPQPPVPEPANAGKRKVREFNFEKWNARITDLRKQVEELFERKYAQAIKAKGPVTIPYPLFQSHVEDLYVEGLPEGIPFRRPSTYGIPRLERILLAKERIRFVIKKHELLNSTREDLQLDKPASGVKEEWYARITKLRKMVDQLFCKKFAEALGSTEAKAVPYQKFEAHPNDLYVEGLPENIPFRSPSWYGIPRLEKIIQVGNRIKFVIKRPELLTHSTTEVTQPRTNTPVKEDWNVRITKLRKQVEEIFNLKFAQALGLTEAVKVPYPVFESNPEFLYVEGLPEGIPFRSPTWFGIPRLERIVRGSNKIKFVVKKPELVISYLPPGMASKINTKALQSPKRPRSPGSNSKVPEIEVTVEGPNNNNPQTSAVRTPTQTNGSNVPFKPRGREFSFEAWNAKITDLKQKVENLFNEKCGEALGLKQAVKVPFALFESFPEDFYVEGLPEGVPFRRPSTFGIPRLEKILRNKAKIKFIIKKPEMFETAIKESTSSKSPPRKINSSPNVNTTASGVEDLNIIQVTIPDDDNERLSKVEKARQLREQVNDLFSRKFGEAIGMGFPVKVPYRKITINPGCVVVDGMPPGVSFKAPSYLEISSMRRILDSAEFIKFTVIRPFPGLVINNQLVDQSESEGPVIQESAEPSQLEVPATEEIKETDGSSQIKQEPDPTW [GTF2I] | 0.0586 | 45.4 °C | 48.5 °C | 0.0472 | 6.54 | 16.3
MVMAAKKGPGPGGGVSGGKAEAEAASEVWCRRVRELGGCSQAGNRHCFECAQRGVTYVDITVGSFVCTTCSGLLRGLNPPHRVKSISMTTFTEPEVVFLQSRGNEVCRKIWLGLFDARTSLVPDSRDPQKVKEFLQEKYEKKRWYVPPDQVKGPTYTKGSASTPVQGSIPEGKPLRTLLGDPAPSLSVAASTSSQPVSQSHARTSQARSTQPPPHSSVKKASTDLLADIGGDPFAAPQMAPAFAAFPAFGGQTPSQGGFANFDAFSSGPSSSVFGSLPPAGQASFQAQPTPAGSSQGTPFGATPLAPASQPNSLADVGSFLGPGVPAAGVPSSLFGMAGQVPPLQSVTMGGGGGSSTGLAFGAFTNPFTAPAAQSPLPSTNPFQPNGLAPGPGFGMSSAGPGFPQAVPPTGAFASSFPAPLFPPQTPLVQQQNGSSFGDLGSAKLGQRPLSQPAGISTNPFMTGPSSSPFASKPPTTNPFL [AGFG2] | 0.247 | 46.6 °C | 47.9 °C | -0.0538 | 0.518 | 0.826
MATSAPLRSLEEEVTCSICLDYLRDPVTIDCGHVFCRSCTTDVRPISGSRPVCPLCKKPFKKENIRPVWQLASLVENIERLKVDKGRQPGEVTREQQDAKLCERHREKLHYYCEDDGKLLCVMCRESREHRPHTAVLMEKAAQPHREKILNHLSTLRRDRDKIQGFQAKGEADILAALKKLQDQRQYIVAEFEQGHQFLREREEHLLEQLAKLEQELTEGREKFKSRGVGELARLALVISELEGKAQQPAAELMQDTRDFLNRYPRKKFWVGKPIARVVKKKTGEFSDKLLSLQRGLREFQGKLLRDLEYKTVSVTLDPQSASGYLQLSEDWKCVTYTSLYKSAYLHPQQFDCEPGVLGSKGFTWGKVYWEVEVEREGWSEDEEEGDEEEEGEEEEEEEEAGYGDGYDDWETDEDEESLGDEEEEEEEEEEEVLESCMVGVARDSVKRKGDLSLRPEDGVWALRLSSSGIWANTSPEAELFPALRPRRVGIALDYEGGTVTFTNAESQELIYTFTATFTRRLVPFLWLKWPGTRLLLRP [TRIM26] | -1.13 | 51.2 °C |  | -0.225 | 0.882 | 3.9
MHRKKVDNRIRILIENGVAERQRSLFVVVGDRGKDQVVILHHMLSKATVKARPSVLWCYKKELGFSSHRKKRMRQLQKKIKNGTLNIKQDDPFELFIAATNIRYCYYNETHKILGNTFGMCVLQDFEALTPNLLARTVETVEGGGLVVILLRTMNSLKQLYTVTMDVHSRYRTEAHQDVVGRFNERFILSLASCKKCLVIDDQLNILPISSHVATMEALPPQTPDESLGPSDLELRELKESLQDTQPVGVLVDCCKTLDQAKAVLKFIEGISEKTLRSTVALTAARGRGKSAALGLAIAGAVAFGYSNIFVTSPSPDNLHTLFEFVFKGFDALQYQEHLDYEIIQSLNPEFNKAVIRVNVFREHRQTIQYIHPADAVKLGQAELVVIDEAAAIPLPLVKSLLGPYLVFMASTINGYEGTGRSLSLKLIQQLRQQSAQSQVSTTAENKTTTTARLASARTLYEVSLQESIRYAPGDAVEKWLNDLLCLDCLNITRIVSGCPLPEACELYYVNRDTLFCYHKASEVFLQRLMALYVASHYKNSPNDLQMLSDAPAHHLFCLLPPVPPTQNALPEVLAVIQVCLEGEISRQSILNSLSRGKKASGDLIPWTVSEQFQDPDFGGLSGGRVVRIAVHPDYQGMGYGSRALQLLQMYYEGRFPCLEEKVLETPQEIHTVSSEAVSLLEEVITPRKDLPPLLLKLNERPAERLDYLGVSYGLTPRLLKFWKRAGFVPVYLRQTPNDLTGEHSCIMLKTLTDEDEADQGGWLAAFWKDFRRRFLALLSYQFSTFSPSLALNIIQNRNMGKPAQPALSREELEALFLPYDLKRLEMYSRNMVDYHLIMDMIPAISRIYFLNQLGDLALSAAQSALLLGIGLQHKSVDQLEKEIELPSGQLMGLFNRIIRKVVKLFNEVQEKAIEEQMVAAKDVVMEPTMKTLSDDLDEAAKEFQEKHKKEVGKLKSMDLSEYIIRGDDEEWNEVLNKAGPNASIISLKSDKKRKLEAKQEPKQSKKLKNRETKNKKDMKLKRKK [NAT10] | -2.26 | 49.8 °C | 52.1 °C | 0.692 | 1.83 | 1.3

Reference: the supplement of paper PMC5998384
